Results as given in paper PMC3114436 (Molecular cell, 2008).
Positions count from the first letter of the chain named. Names may count otherwise. No end group written: not given here.

What was measured:
[1] = molecular target: Caulobacter ClpS (Caulobacter vibrioides, UniProt Q9A5I0); assay: ClpS binding assay by fluorescence anisotropy; parameters: species or system Caulobacter crescentus; details: Fig. 3B
[2] = molecular target: T1, C. crescentus ClpS residues 35-119 (Caulobacter crescentus, UniProt Q9A5I0 35-119); assay: crystal structure
T1 sequence (looked up): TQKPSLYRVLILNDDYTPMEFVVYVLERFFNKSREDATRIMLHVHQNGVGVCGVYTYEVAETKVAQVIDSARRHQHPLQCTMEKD

[3] = molecular target: peptides with Tyr, Trp, Phe, or Leu at the N-terminus; assay: fluorescence polarisation
[4] = molecular target: T1, C. crescentus ClpS residues 35-119; assay: fluorescence polarisation
[5] = molecular target: Tyr-GFP

In the case of “Xxx-Leu-Phe-Val-Gln-Tyr-His6-Cys [Tyr peptide]”, the “affinity for Caulobacter ClpS (in words)” value [1] is reported as “sub-micromolar”.

YLFVQRDSKE [N-end rule decapeptide Tyr-Leu-Phe-Val-Gln-Arg-Asp-Ser-Lys-Glu]: binds [2].

B1: C. crescentus ClpS residues 35-119 (domain or fragment)
chain: T1 sequence (looked up)
In the case of B1, the Kd [3] is reported as 150 to 500 nM.

With YLFVQYHHHHHHC(fluorescein maleimide) [fluorescein-labelled N-end rule peptide Tyr-Leu-Phe-Val-Gln-Tyr-His6-Cys] the Kd [4] was about 400 nM.

WLFVQYHHHHHHC(fluorescein maleimide) [fluorescein-labelled N-end rule peptide Trp-Leu-Phe-Val-Gln-Tyr-His6-Cys]: binds [4].

FLFVQYHHHHHHC(fluorescein maleimide) [fluorescein-labelled N-end rule peptide Phe-Leu-Phe-Val-Gln-Tyr-His6-Cys]: binds [4].

B2: E. coli ClpS D36A (natural protein)
chain: MGKTNDWLDFDQLAEEKVRDALKPPSMYKVILVNDAYTPMEFVIDVLQKFFSYDVERATQLMLAVHYQGKAICGVFTAEVAETKVAMVNKYARENEHPLLCTLEKA
For B2, the KM of ClpAP degradation of Tyr-GFP with the ClpS variant (900 nM), fold increase [5] was 2 fold.

B3: E. coli ClpS H66A (natural protein)
chain: B2 chain with A36D, H66A
B3 showed a KM of ClpAP degradation of Tyr-GFP with the ClpS variant (900 nM), fold increase [5] of 5 fold.

LLFVQYHHHHHHC(fluorescein maleimide) [fluorescein-labelled N-end rule peptide Leu-Leu-Phe-Val-Gln-Tyr-His6-Cys]: binds [4].
